test: yeast display, Sf9 membrane polyspecificity reagent, FACS + sequencing; frameworks hold sequencing errors
In short: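 In a synthetic yeast display library (Saccharomyces cerevisiae BJ5465), nanobody expression was induced with galactose for 36–48 hours. FACS gates were set low and high (top ~1%) using anti-HA fluorescence for expression and streptavidin fluorescence for binding of the Sf9 membrane reagent. Each polyreactivity label is drawn from the gate of origin.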

| Sequence | polyreactivity (PSR sort gate) |
| --- | --- |
| QVQLVESGGGLVQAGGSLRLSCAASGSIFDFYAMGWYRQAPGKERELVAAINRGGSTYYADSVKGRFTISRDNAKNTVYLQMNSLKPEDTAVYYCAASYFYWRANRGPRYYWGQGTQVTVSS | high polyreactivity |
| QVQLVESGGGLVQAGGSLRLSCAASGSIFDGNAMGWYRQAPGKERELVAAISGGGRTYYADSVKGRFTISRDNAKNTVYLQMNSLKPEDTAVYYCAAAYTFYVYGSYKVTLDYWGQGTQVTVSS | low polyreactivity |
| QVQLVESGGGLVQAGGSLRLSCAASGSIFDHTNAMGSYRQAPGKERELVAAITSGSSTNYADSVKGRFTISRDNAKKTVDLQMNSLKPEDTAVYYCNADRFHSGIFDYWGQGTQVTVSS | low polyreactivity |
| QVQLVESGGGLVQAGGSLRLSCAASGSIFDINAMGWYRQAPGKERELVAAISTTSGRTYYADSVKGRFTISRDNAKNTVFLQMNSLKPEDTAVYYCNVSKYVSSYRRGLFNYWGQGTQVTVSS | low polyreactivity |
| QVQLVESGGGLVQAGGSLRLSCAASGSIFDINAMGWYRQAPGKERELVAVITDSGSTYYADSVKGRFTISRDNAKNTVYLQMNSLKPEDTAVYYCAAESSLLFFLMDYWGQATQVTVSS | low polyreactivity |
| QVQLVESGGGLVQAGGSLRLSCAASGSIFDINAMGWYRQAPGKERELVAVITDSGSTYYADSVKGRFTISRDNAKNTVYLQMNSLKPEDTAVYYCAAESSLLFFLMDYWGQGTQVTVSS | low polyreactivity |
| QVQLVESGGGLVQAGGSLRLSCAASGSIFDIYAMGWYRQAPGKERELVAAISWNGGDTTYADSVKGRFTISRDNAKNTVYLQMNSLKPEDTAVYYCAADLGYWVADYYWGQGTQVTVSS | high polyreactivity |
| QVQLVESGGGLVQAGGSLRLSCAASGSIFDIYAMGWYRQAPGKETELVAAISWNGGDTTYADSVKGRFTISRDNAKNTVYLQMNSLKPEDTAVYYCAADLGYWVADYYWGQGTQVTVSS | high polyreactivity |
| QVQLVESGGGLVQAGGSLRLSCAASGSIFDLNAMGWYRQAPGKERELVAAISKSGGSTYYADSVKGRFTISRDNAKNTVYLQMNSLKPEDTAVYYCATSGDRLVWGQGTQVTVSW | low polyreactivity |
| QVQLVESGGGLVQAGGSLRLSCAASGSIFDLNAMGWYRQAPGKERELVAAISSGGGTYYADSVKGRFTISRDNAKNTVYLQMNSLKPEDTAVYYCNRVTRWTYNYWGQGTQVTVSS | high polyreactivity |
| QVQLVESGGGLVQAGGSLRLSCAASGSIFDLYAMGWYRQAPGKERELVAGISYSGGSTYYADSVKGRFTISRDNAKNTVYLQMNSLKPEDTAVYYCAVDLGYRLGRFDYWGQGTQVTVSS | low polyreactivity |
| QVQLVESGGGLVQAGGSLRLSCAASGSIFDNYAMGWYRPAPGKERELVAVISSGGVSTSYADSVKGRFTISRDNAKNTVYLQMNSLKTEDTAVYYCAADGYYIGPYDYWGQGTQVNVSS | low polyreactivity |
| QVQLVESGGGLVQAGGSLRLSCAASGSIFDPYAMGWYRQAPGKEREFVAALSWSGGSTYYADSVKGRFTISRDNAKNTVYLQMNSLKPEDTAVYYCATDWGDPYGYDYWGQGTQVTVSS | low polyreactivity |
| QVQLVESGGGLVQAGGSLRLSCAASGSIFDPYAMGWYRQAPGKERELVAAISFSGGSTSYADSVKGRFTISRDNAKNTVYLQMNSLTPEATAVYYCAKRARFYSETDLKPYGFDYWGHGTQVTVSS | low polyreactivity |
| QVQLVESGGGLVQAGGSLRLSCAASGSIFDPYAMGWYRQAPGKERELVARISRSGGSTNYADSVKGRFTISRDNAKNTVYLQMNSLKPEDTAVYYCNTPSSREMDYWGQGTQVTVSS | low polyreactivity |
| QVQLVESGGGLVQAGGSLRLSCAASGSIFDQNAMGWYRQAPGKERELVAAITFSGVDTYYADSAKGRFTISRDNAKNTVYLQMNSLKPEDTAVYYCNADRGYNLVRRSQAVVEMDYWGQGTQVTVSS | low polyreactivity |
| QVQLVESGGGLVQAGGSLRLSCAASGSIFDRNAMGWYRQAPGIERELVAAITSRGGSTYYADSVKGRFTISRDNAKNTVYLQMNSLKPEDTAVYYCAARYSSRGTYPRRYDYWGQGTQVTVSS | high polyreactivity |
| QVQLVESGGGLVQAGGSLRLSCAASGSIFDRNAMGWYRQAPGKERELVAAITSGGSTYYADSVKGRFTISRDNAKNTVYLQMNSLKPEDTAVYYCNADTDPPVPLYYWGQGTQVTVSS | low polyreactivity |
| QVQLVESGGGLVQAGGSLRLSCAASGSIFDRYALGWYRQAPGKERELVAAISTGGSTNYADSVKGRFTISRDNAKNTVYLQMNSLKPEDTAVYYCAAASPYHEYDYWGQGTQVTVSS | low polyreactivity |
| QVQLVESGGGLVQAGGSLRLSCAASGSIFDRYAMGWYRQAPGKERELVAAISRSGGSTYYADSVMGRFTISRDNAKNTVYLQMNSLKPEDTAVYYCAAYQHPGLRTSYEYWGQGTQVTVSS | low polyreactivity |
| QVQLVESGGGLVQAGGSLRLSCAASGSIFDRYAMGWYRQAPGKERELVAAISTGGSTNYADSVKGRFTISRDNAKNTVYLQMNSLKPEDTAVYYCAAERYWVFHGTISYKYDYWGQGTQVTVSS | low polyreactivity |

| Sequence | polyreactivity (PSR sort gate) |
| --- | --- |
| QVQLVESGGGLVQAGGSLRLSCAASGSIFDSNAMGWYRQAPGKERELVAAITGSGSTNYADSVKGRFTISRDNAKNTVYLQMNSLKPEDTAVYYCNAQAPYTEFDYWGQGTQVTVSS | low polyreactivity |
| QVQLVESGGGLVQAGGSLRLSCAASGSIFDSNAMGWYRQAPGKERELVAAITGSGTSTYDADSVKGRFTISRDNAKNTVYLQMNSLKPEDTAVYYCAAAPEYLTDHDYWGQGTQVTVSS | low polyreactivity |
| QVQLVESGGGLVQAGGSLRLSCAASGSIFDSNAMGWYRQAPGKERELVAVITGSGGITYYADSVKGRFTISRDNAKNTVYLQMNRLKPEDTAVYYCYADYYLSEDGTWIYDYWGQGTQVTVSS | high polyreactivity |
| QVQLVESGGGLVQAGGSLRLSCAASGSIFDSYVMGWYRQAPGKERELVAAITYSGGSTYADSVMGRFTISRDNAKNTVYLQMNSVKPEDTAVYYCAAASYFYLYLLEDYWGQGTQVTVSS | low polyreactivity |
| QVQLVESGGGLVQAGGSLRLSCAASGSIFDTYAMGWYRQATGKERELVSTISWSGDSKYYADSVKGRFTISRDNAKNTVYLQINSLKPEDTAVYYCAADVGQVWDHEDYDYWGQGTQVTVSS | low polyreactivity |
| QVQLVESGGGLVQAGGSLRLSCAASGSIFDVNAMGWYRQATGKERELVAAISDSGGSTYYADSVKGRFTISRDNAKNTVYLQMNSLKPEDTAVYYSNADWSWYNYYDFDYWGHGTQVTVSS | low polyreactivity |
| QVQLVESGGGLVQAGGSLRLSCAASGSIFDVNSMGWYRQAPGKERELVAAISDSGGSTYYADSVKGRFTISRDNAKNTVYLQMNSLKPEDTAVYYCNADWSWYNYYDFDYLGQGTQVTVSS | low polyreactivity |
| QVQLVESGGGLVQAGGSLRLSCAASGSIFDVNTMGWYSQAPGKERELVAGITSRGGSTYYADSVKGRFTISRDNAKNTVYLQMNSLKPEDTAVYYCAKRAYGTALYRGYGYWGQGTQVTVSS | low polyreactivity |
| QVQLVESGGGLVQAGGSLRLSCAASGSIFDVYAMGWYRQAPGKERELVAAIDSGGSSTYYADSVKGRFTISRDNAKNTVYLQMNSLKPEDTAVYYCAARPYYSWNYDYWGQGTQVTVSS | low polyreactivity |
| QVQLVESGGGLVQAGGSLRLSCAASGSIFDVYAMGWYRQAPGKERELVAAITFDGGSTYYADSVKGRFTISRDNAKNTVYLQMNSLKPEDTAVYDCNAEFYFLWDWQSFDYWGQGTQVTVSS | high polyreactivity |
| QVQLVESGGGLVQAGGSLRLSCAASGSIFDVYTMGWYRQAPGKERELVAAISQSTGSTYYAASVKGRFTISRDNAKNTVYLQMNSLIPEDTAVYYCNAKFRFVTYKTPYVFWGQVTQVTVSS | low polyreactivity |
| QVQLVESGGGLVQAGGSLRLSCAASGSIFDWYAMGCYRQAPGKEGELVAAISSGDSTYYADSVKGRFTISRDNAKNTVYLQMNSLKPEDTAVYYCAAVTKLSGIRYNYWGQGTQVTVSS | low polyreactivity |
| QVQLVESGGGLVQAGGSLRLSCAASGSIFDYNAMGWNRQAPGKETELVAAITSTDSTYADSVKGRFTISRDNAKNTVYLQMNSLKPEDTAVYYCAAEDVIYYLTGQWREYDYWGQGTQVNVSS | low polyreactivity |
| QVQLVESGGGLVQAGGSLRLSCAASGSIFDYNAMGWYRQAPGKERELVAAINYSGTRTYYADSVKGRFTISRDNAKNTVYLQMNSLKPEDTADYYCAARVRVPQTARLHEYWGQGTQVTVSS | high polyreactivity |
| QVQLVESGGGLVQAGGSLRLSCAASGSIFDYNAMGWYRQAPGKERELVAAISSGGSTYYADSVKGRFTISRDNAKNTVYLQMNSLKPEDTAVYYCAVKFWYHIYDYWGQGTQVTVSS | low polyreactivity |
| QVQLVESGGGLVQAGGSLRLSCAASGSIFDYNTMGWYRQAPGKERELVAAISSNGGSTYYADSVKGRFTISRDNAKNTVYLQMNSRNPEDTAVYYCAVSIYVYHLDLEYWGQGTQVTVSS | low polyreactivity |
| QVQLVESGGGLVQAGGSLRLSCAASGSIFDYYAMGWYRQAPGKERELVAAISESSDSTYYADSVKGRFTISRDNAKNTVYLQMNSLKPEDTAVYYCAAYRGTLLTAYDYWGQGTQVTVSS | low polyreactivity |
| QVQLVESGGGLVQAGGSLRLSCAASGSIFDYYDMGWYRQAPGKERELVAAINWSGGITYYADSVKGRFTISRDNAKNTVYLQMNSLKPEDTAVYYCAADWYQWVYSSSITSFDYWGQGTQVTVSS | low polyreactivity |
| QVQLVESGGGLVQAGGSLRLSCAASGSIFDYYTMGWYRQAPGKERELVAAISWSGGSTYYADSVKGRFTISRDNAKNTVYLQMNSLKPEDTAVYYCNAVGYSRYTVWSYYYWGQGTQVTVSS | high polyreactivity |
| QVQLVESGGGLVQAGGSLRLSCAASGSIFEANDMGWYRQAPGKERELVAAIDANTGSTYYADSVKGRFTISRDNAKNTVYLQMNSLKPEDTAVYYCNAQVYLHTAYDYWGQGTQVTVSS | low polyreactivity |

Reference: the nanobody polyreactivity screen of Harvey et al. (2022)
